Source: publication doi:10.1101/2022.03.29.486248 (bioRxiv, 2022)

T1: SufB (subunit of the His6-SufBC2D complex, wild type) (Escherichia coli, UniProt P77522 1-495)
T1 sequence: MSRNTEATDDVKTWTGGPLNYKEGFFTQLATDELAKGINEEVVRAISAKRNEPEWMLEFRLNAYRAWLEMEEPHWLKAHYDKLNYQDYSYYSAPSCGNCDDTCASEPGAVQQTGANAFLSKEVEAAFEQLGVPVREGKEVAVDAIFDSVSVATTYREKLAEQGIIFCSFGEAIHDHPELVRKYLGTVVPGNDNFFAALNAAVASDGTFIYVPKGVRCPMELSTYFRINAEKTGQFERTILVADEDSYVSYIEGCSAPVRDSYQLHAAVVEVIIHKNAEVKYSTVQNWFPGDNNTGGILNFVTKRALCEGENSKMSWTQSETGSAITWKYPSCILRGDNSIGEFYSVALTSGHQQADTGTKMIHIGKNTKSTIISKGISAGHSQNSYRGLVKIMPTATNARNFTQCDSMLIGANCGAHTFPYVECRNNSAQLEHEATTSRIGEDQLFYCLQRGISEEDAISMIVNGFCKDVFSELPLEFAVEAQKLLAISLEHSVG

B1: SufD (subunit of the SufBC2D complex, wild type) (natural protein, Escherichia coli)
chain: MAGLPNSSNALQQWHHLFEAEGTKRSPQAQQHLQQLLRTGLPTRKHENWKYTPLEGLINSQFVSIAGEISPQQRDALALTLDSVRLVFVDGRYVPALSDATEGSGYEVSINDDRQGLPDAIQAEVFLHLTESLAQSVTHIAVKRGQRPAKPLLLMHITQGVAGEEVNTAHYRHHLDLAEGAEATVIEHFVSLNDARHFTGARFTINVAANAHLQHIKLAFENPLSHHFAHNDLLLAEDATAFSHSFLLGGAVLRHNTSTQLNGENSTLRINSLAMPVKNEVCDTRTWLEHNKGFCNSRQLHKTIVSDKGRAVFNGLINVAQHAIKTDGQMTNNNLLMGKLAEVDTKPQLEIYADDVKCSHGATVGRIDDEQIFYLRSRGINQQDAQQMIIYAFAAELTEALRDEGLKQQVLARIGQRLPGGAR
B2: SufC (subunit of the SufBC2D complex) (natural protein, Escherichia coli)
chain: MLSIKDLHVSVEDKAILRGLSLDVHPGEVHAIMGPNGSGKSTLSATLAGREDYEVTGGTVEFKGKDLLALSPEDRAGEGIFMAFQYPVEIPGVSNQFFLQTALNAVRSYRGQETLDRFDFQDLMEEKIALLKMPEDLLTRSVNVGFSGGEKKRNDILQMAVLEPELCILDESDSGLDIDALKVVADGVNSLRDGKRSFIIVTHYQRILDYIKPDYVHVLYQGRIVKSGDFTLVKQLEEQGYGWLTEQQ

Molecular target: T1, SufB (subunit of the His6-SufBC2D …)
Experiment: SEC-MALS

Row | Binder | stoichiometry N
1 | B1 | 1
2 | B2 | 2
